According to paper PMC2559947:
Values joined by “and” are separate entries in the source; they are usually repeats but may differ in a detail not shown here. Equal entries are not always repeated.

Columns and labels:
[1] = target: C326A pea porphobilinogen synthase (pea (Pisum sativum)); experiment: native gel or EMSA
[2] = target: C326A pea porphobilinogen synthase (pea (Pisum sativum)); experiment: AUC
[3] = target: C326A pea porphobilinogen synthase (pea (Pisum sativum)); experiment: AUC; remark: listed apart in the source
[4] = target: C326A pea porphobilinogen synthase (pea (Pisum sativum)); experiment: AUC; remark: listed apart in the source

stoichiometry N [1]: 8
stoichiometry N [2]: 8
stoichiometry N [3]: 6 and 8
stoichiometry N [4]: 8 and 6
Substance: C326A pea porphobilinogen synthase (enzyme)
